Test results published in patent US6649168B2, “Pharmaceutical compositions comprising TGF-beta” (Novartis AG, priority 1999, dated 2003).

Tests used:
[1] = Fluorescence adsorption study (intrinsic tryptophan fluorescence) of binding to cuvette walls; assay type: physicochemical; settings: solution of TGF-β (1 μg/ml) in water, 25° C.
Description: We have also developed an analytical method suitable for determining suitable concentrations of TGF-β, especially TGF-β3. When adsorption of a fluorescent molecule (protein) occurs to the cuvette walls the concentration of the molecule in the solution decreases. This change in concentration is monitored by changes (reduction) in the fluorescence intensity. With optimized slits in the excitation and emission monochromators the excitation beam is focused in a small region in the middle of the cuvette and the emission is collected also preferentially from the same region. […] In these conditions the fluorescence intensity is proportional to the concentration of the molecules in the aqueous solution (monitored in the middle of the cuvette). If binding occurs a decrease in the fluorescence intensity is observed. For TGF-β the intrinsic tryptophan fluorescence is used in the adsorption studies. To characterize an adsorption process the percentage from the total TGF-β in the cuvette which bound to the walls in a given time interval, e.g. 25 minutes, is measured. Fluorescence measurements are performed with a Spex Fluorolog® or a Spex Fluoromax® spectrophotometers with a stirred attachment in the cell holder at 25° C. Tryptophan fluorescence is excited at 280 nm and emission monitored at 340 nm. […]

[2] = test system: cranial bone defect; experiment: Rabbit cranial defect model, bony filling by quantitative radiography; assay type: in vivo
Experimental: (§1) The in vivo performance of the pharmaceutical compositions of the present invention may be tested on horses (wound healing), pigs (oral mucositis inhibition), rabbits e.g. with the rabbit cranial defect model (induction of repairing of bone defects), and femal mice (induction of angiogenesis).
Bone disks removed for creation of the defect served as controls for the extent of bone regeneration. After an eight week healing period the bony filling of the defects was determined by quantitative radiography. The total defect area corresponded to 113320.2 pixels and was taken as 100% for further calculations. Accordingly, complete regeneration corresponded to a value of 11.3×10^4 pixels.

[3] = test system: vascularization; experiment: Mouse subcutaneous model (induction of angiogenesis); assay type: in vivo
Description: as §1

[4] = Chemical stability of lyophilized formulation, by-products by capillary zone electrophoresis; assay type: physicochemical; settings: in the absence of CaCl2
Experimental: The chemical stability of lyophilized formulation in vials containing TGF-β3, 5.881 mg of CaCl2 and 25 mg of mannitol have been tested. The vials are solubilized to obtain TGF-β3 solutions of 0.1 mg/ml and 0.25 mg/ml. TGF-β3 by-products (related substances) are determined by capillary zone electrophoresis. […] There is no increase in the TGF-β3 by-products after 6 month incubation at 40° C. In comparison, in the absence of CaCl2 the chemical degradation is substantial.

[5] = Aggregation by 90°-light scattering; assay type: physicochemical; settings: 10 mM calcium chloride or 10 mM calcium phosphate, and 20% isopropanol or ethanol; increasing TGF-β3 concentration up to 60 μg/ml
Experimental: Aggregation of TGF-β3 in different aqueous conditions is studied using 90°-lightscattering. Using the same wavelength for excitation and emission, e.g. excitation and emission wavelength is 560 nm, a Spectrofluorimeter is used to detect aggregation events by measuring the 90°-light scatter. In this method a small aliquot of TGF-β3 stock solution is added in the fluorescence cuvette. If aggregation takes place an increase in the 90°-light scatter intensity is observed.
A composition comprising 10 mM calcium chloride or 10 mM calcium phosphate, and 20% isopropanol or ethanol is prepared.

Substance	binding to plastic, quartz and siliconised quartz cuvettes [1]	bone formation (in words) [2]	vascularization (in words) [3]	chemical degradation [4]	aggregation (90°-light scatter intensity) [5]
TGF-β	bind strongly	–	–	–	–
TGF-β3: 25 kD homodimeric, disulfide-linked protein composed of two 112 amino acid polypeptides	–	strong bone formation	strong vascularization	substantial	No aggregation
